# Measured values as given in US20250295799A1 (Zymeworks, published 2025).
# Positions count from the first letter of the chain named.
# B1: M3-H18L6 (WT) mAb, v38592 (antibody, human IgG1, kappa)
# heavy: not shown
# light: EIVLTQSPATLSLSPGERATISCRSSQSLRHSNGNTYLQWYQQKPGQAPRLLIYKVSNRFSGVPARFSGSGSGTDFTLTISSLEPEDFAVYFCYQSKHVPYTFGGGTKVEIKRTVAAPSVFIFPPSDEQLKSGTASVVCLLNNFYPREAKVQWKVDNALQSGNSQESVTEQDSKDSTYSLSSTLTLSKADYEKHKVYACEVTHQGLSSPVTKSFNRGEC
# notes: Full-size IgG1/kappa; also called wild-type M3-H18L6; M3-H18L6 with HC C-terminal lysine
# B2: H18L6_LC_G34D mAb, v40203 (antibody, human IgG1, kappa, V domains shown)
# VH: QVQLVQSGAEVKKPGSSVKVSCKASGYTFTDYEMHWVKQAPGHGLEWIGAIDPETGDTAYNQKFKGKATLTADTSTSTAYMELSSLRSEDTAVYYCTRYFSFAYWGQGTLVTVSS
# VL: EIVLTQSPATLSLSPGERATISCRSSQSLRHSNDNTYLQWYQQKPGQAPRLLIYKVSNRFSGVPARFSGSGSGTDFTLTISSLEPEDFAVYFCYQSKHVPYTFGGGTKVEIKR
# B3: H18L6_LC_G34Q mAb, v40208 (antibody, human IgG1, kappa, V domains shown)
# VH: B2 VH
# VL: B2 VL with D34Q
# notes: Full-size IgG1/kappa
# B4: H18L6_LC_G34K mAb, v40207 (antibody, human IgG1, kappa, V domains shown)
# VH: B2 VH
# VL: B2 VL with D34K
# notes: Full-size IgG1/kappa
# B5: H18L6_LC_G34A mAb, v40212 (antibody, human IgG1, kappa, V domains shown)
# VH: B2 VH
# VL: B2 VL with D34A
# notes: M3-H18L6 chains with the stated light chain point mutation, IgG1/kappa
# B6: H18L6_LC_G34E mAb, v40204 (antibody, human IgG1, kappa, V domains shown)
# VH: B2 VH
# VL: B2 VL with D34E
# notes: as for B5
# B7: v36180-MC-GGFG-Compound 141 (DAR8) (antibody, human IgG1, kappa, V domains shown)
# VH: B2 VH with Q1E, K38R, H43Q, K67R, T74K
# VL: DVQMTQSPSSVSASVGDRVTITCRSSQSLRHSNGNTYLQWYQQKPGKAPKLLIYKVSNRFSGVPSRFSGSGSGTDFTLTISSLQPEDFATYFCYQSKHVPYTFGQGTKVEIKR
# modifications: MC-GGFG-Compound 141 drug-linker on reduced cysteines, sites not stated; MC-GGFG-Compound 141 drug-linker on reduced cysteines, sites not stated; DAR 8 for the whole antibody
# B8: v36180-MC-GGFG-AM-Compound 141 (DAR8) (antibody, human IgG1, kappa, V domains shown)
# VH: B2 VH with Q1E, K38R, H43Q, K67R, T74K
# VL: B7 VL
# modifications: MC-GGFG-AM-Compound 141 drug-linker on reduced cysteines, sites not stated; MC-GGFG-AM-Compound 141 drug-linker on reduced cysteines, sites not stated; DAR 8 for the whole antibody
# B9: v36180-MC-GGFG-AM-Compound 139 (DAR8) (antibody, human IgG1, kappa, V domains shown)
# VH: B2 VH with Q1E, K38R, H43Q, K67R, T74K
# VL: B7 VL
# modifications: MC-GGFG-AM-Compound 139 drug-linker on reduced cysteines, sites not stated; MC-GGFG-AM-Compound 139 drug-linker on reduced cysteines, sites not stated; DAR 8 for the whole antibody
# Biological target: T1, cynomolgus monkey glypican-3 (GPC3) (cynomolgus monkey, UniProt A5A6P7 25-554 (Pan troglodytes entry))
# T1 construct: Transiently expressed on CHO-S cells; also called cynoGPC3; CynoGPC3-CHO
# Test: flow cytometry on CHO-S cells transfected with cynomolgus GPC3;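 note: antibodies incubated 24 h at 4 °C with transiently transfected cells, binding read as AF647 geometric mean fluorescence of live cells, GFP-transfected cells as negative control, Hill-slope specific-binding fit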
# Throughout, for JHH-5 Internalization (MFI), Day 0 in mouse plasma: test concentration or dose not given here.
# Throughout, for JHH-5 Internalization (MFI), Day 14 in mouse plasma: test concentration or dose not given here.
# Throughout, for JHH-5 Internalization (MFI): test concentration or dose not given here.
# Throughout, for JHH-7 Internalization (MFI), Day 0 in mouse plasma: test concentration or dose not given here.
# Throughout, for JHH-7 Internalization (MFI), Day 14 in mouse plasma: test concentration or dose not given here.
# Throughout, for JHH-7 Internalization (MFI): test concentration or dose not given here.
Binder,Bmax (MFI),Kd
B1,3150 MFI,0.19 nM
B2,2870 MFI,0.18 nM
B3,2820 MFI,0.15 nM
B4,2930 MFI,0.16 nM
B5,3160 MFI,0.25 nM
B6,2870 MFI,0.15 nM

# Biological target: T2, human glypican-3 (GPC3) (human, UniProt P51654 25-554)
# T2 construct: Endogenous on JHH-7, JHH-5, HepG2 and NCI-H446 tumour cells, or transiently expressed on CHO-S cells from a pTT5 plasmid; also called hGPC3; huGPC3
# Test: flow cytometry on JHH-5 cells; antibody after 14 days in mouse plasma at 37 C
# Method: (§1) For binding cells were seeded at 50,000 cells/well in V-bottom 96-well plates and treated with antibody for 24 hours at 4° C. to prevent internalization. […] Following incubation and washing, fluorescence was detected by flow cytometry on a BD LSRFortessa™ Cell Analyzer (BD Biosciences, Franklin Lake, NJ) with 1,000 minimum events collected per well. AF647/APC-A GeoMean (fluorescence signal geometric mean, proportional to anti-Human AF647 binding) in live cell population was plotted against antibody concentration using GraphPad Prism Version 9 (GraphPad Software, San Diego, CA). The Bmax, Curve Hill Slope (h) and Kd values were derived from the “Specific binding with Hill slope” nonlinear regression curve fit in GraphPad Prism Version 9.
Binder,Bmax (MFI),Kd
B2,4520 MFI,0.34 nM
B3,5640 MFI,0.15 nM
B4,6460 MFI,0.26 nM
B5,6050 MFI,0.23 nM
B6,4460 MFI,0.26 nM

# Biological target: human GPC3 on cells (human, UniProt P51654 25-554)
# Test: cell-based or functional assay
Binder,"EC50 (nM), cytotoxicity, 2D monolayer, HepG2 (High)","EC50 (nM), cytotoxicity, 2D monolayer, Huh-6 (Mid)","EC50 (nM), cytotoxicity, 2D monolayer, Huh-7 (Mid)","EC50 (nM), cytotoxicity, 2D monolayer, JHH-5 (Mid)","EC50 (nM), cytotoxicity, 2D monolayer, JHH-7 (High)"
B7,0.03 nM,0.12 nM,0.03 nM,0.11 nM,0.03 nM
B8,0.03 nM,0.12 nM,0.01 nM,0.08 nM,0.02 nM
B9,0.09 nM,–,0.01 nM,0.14 nM,1 nM

# Biological target: T2, human glypican-3 (GPC3)
# Test: flow cytometry on JHH-7 cells; antibody in mouse plasma, day 0
# Method: as §1
Binder,Bmax (MFI),Kd
B1,9770 MFI,0.39 nM
B2,9140 MFI,0.26 nM
B3,8910 MFI,0.32 nM
B4,9620 MFI,0.16 nM
B5,8360 MFI,0.36 nM
B6,8500 MFI,0.26 nM

# Biological target: T2, human glypican-3 (GPC3)
# Test: flow cytometry on JHH-7 cells; antibody after 14 days in mouse plasma at 37 C
# Method: as §1
Binder,Bmax (MFI),Kd
B2,8060 MFI,0.62 nM
B3,11000 MFI,0.23 nM
B4,10900 MFI,0.31 nM
B5,11300 MFI,0.28 nM
B6,8430 MFI,0.67 nM

# Biological target: T2, human glypican-3 (GPC3)
# Test: cell-based or functional assay
Binder,"JHH-5 Internalization (MFI), Day 0 in mouse plasma","JHH-5 Internalization (MFI), Day 14 in mouse plasma","JHH-7 Internalization (MFI), Day 0 in mouse plasma","JHH-7 Internalization (MFI), Day 14 in mouse plasma"
B1,12200 MFI,7250 MFI,152 MFI,76 MFI
B2,8690 MFI,5690 MFI,104 MFI,63 MFI
B3,10500 MFI,9980 MFI,131 MFI,106 MFI
B4,12800 MFI,11400 MFI,143 MFI,115 MFI
B5,10200 MFI,7290 MFI,131 MFI,75 MFI
B6,7100 MFI,6040 MFI,91 MFI,73 MFI

# Biological target: T2, human glypican-3 (GPC3)
# Test: flow cytometry on CHO-S cells transfected with human GPC3;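 note: antibody binding to transiently transfected CHO-S cells after 24 hours at 4 °C, read as geometric mean fluorescence of anti-human AF647 in live cells, fitted against antibody concentration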
# Method: Briefly, CHO—S cells were transiently transfected for −24 hours with a pTT5-based expression plasmid encoding human GPC3 or cynomolgus monkey GPC3, 0.5 μg DNA per 1 million cells, using the Neon™ Transfection System (Thermo Fisher Scientific Corp., Waltham, MA), to transiently express human or cynomolgus monkey GPC3. Cells transfected with GFP were used as negative transfection controls. Following transfection, cells were seeded at 50,000 cells/well in V-bottom 96-well plates and treated with antibody for 24 hours at 4° C. to prevent internalization. […] Following incubation and washing, fluorescence was detected by flow cytometry on a BD LSRFortessa™ Cell Analyzer (BD Biosciences, Franklin Lake, NJ) with 1,000 minimum events collected per well. AF647/APC-A GeoMean (fluorescence signal geometric mean, proportional to anti-Human AF647 binding) in live cell population was plotted against antibody concentration using GraphPad Prism Version 9 (GraphPad Software, San Diego, CA). The Bmax and Kd values were derived from the “Specific binding with Hill slope” nonlinear regression curve fit in GraphPad Prism Version 9.
Binder,Bmax (MFI),Kd
B1,2530 MFI,0.14 nM
B2,2470 MFI,0.18 nM
B3,2280 MFI,0.11 nM
B4,2330 MFI,0.11 nM
B5,2200 MFI,0.12 nM
B6,2260 MFI,0.11 nM

# Biological target: T2, human glypican-3 (GPC3)
# Test: flow cytometry on JHH-5 cells (GPC3-mid);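 note: antibody binding to cells at 4 °C for 24 h, detected with anti-human AF647 as geometric mean fluorescence of live cells versus antibody concentration, fitted by specific binding with Hill slope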
# Method: (§2) Briefly, cells were seeded at 50,000 cells/well in V-bottom 96-well plates and treated with antibody for 24 hours at 4° C. to prevent internalization. […] Following incubation and washing, fluorescence was detected by flow cytometry on a BD LSRFortessa™ Cell Analyzer (BD Biosciences, Franklin Lake, NJ) with 1,000 minimum events collected per well. AF647/APC-A GeoMean (fluorescence signal geometric mean, proportional to anti-Human AF647 binding) in live cell population was plotted against antibody concentration using GraphPad Prism Version 9 (GraphPad Software, San Diego, CA). The Bmax, Curve Hill Slope (h) and Kd values were derived from the “Specific binding with Hill slope” nonlinear regression curve fit in GraphPad Prism Version 9.
Binder,Bmax (MFI),Kd
B1,4670 MFI,0.12 nM
B2,4280 MFI,0.24 nM
B3,4360 MFI,0.16 nM
B4,4740 MFI,0.2 nM
B5,3850 MFI,0.31 nM
B6,4140 MFI,0.17 nM

# Biological target: T2, human glypican-3 (GPC3)
# Test: flow cytometry on JHH-5 cells; antibody in mouse plasma, day 0
# Method: as §1
Binder,Bmax (MFI),Kd
B1,5130 MFI,0.14 nM
B2,4660 MFI,0.11 nM
B3,4730 MFI,0.11 nM
B4,5490 MFI,0.07 nM
B5,4930 MFI,0.15 nM
B6,4760 MFI,0.11 nM

# Biological target: T2, human glypican-3 (GPC3)
# Test: cell-based or functional assay
# Remark: another data set of the same source
Binder,JHH-5 Internalization (MFI),JHH-7 Internalization (MFI)
B1,10500 MFI,7260 MFI
B2,6770 MFI,5010 MFI
B3,9510 MFI,8920 MFI
B4,10000 MFI,8760 MFI
B5,9070 MFI,8070 MFI
B6,5770 MFI,4410 MFI

# Biological target: T2, human glypican-3 (GPC3)
# Test: flow cytometry on JHH-7 cells (GPC3-high);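 note: antibody binding at 4 °C for 24 h, detected with anti-human AF647 secondary, geometric mean fluorescence of live cells versus antibody concentration, fitted as specific binding with Hill slope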
# Method: as §2
Binder,Bmax (MFI),Kd
B1,14100 MFI,0.42 nM
B2,12200 MFI,0.4 nM
B3,11600 MFI,0.44 nM
B4,12200 MFI,0.39 nM
B5,13300 MFI,0.56 nM
B6,12500 MFI,0.42 nM
